# Experimental data reported in the supplement of paper PMC7877785.
# ± gives the uncertainty stated by the source.
# Assay: self-splicing fitness, log relative to wild type (ln ratio); higher = more splicing; Tetrahymena group I intron in knt gene, E. coli kanamycin selection, DiMSum; sequences stand for … in CUCUCU…GGAGGGAAAAGUUAUCAGGCAUGCACCUGGUAGCUAGUCUUUAAACCAAUAGAUUGCAUCGGUUUAAAAGGCAAGACCGUCAAAUUGCGGGAAAGGGGUCAACAGCCGUUCAGUACCAAGUCUCAGGGGAAACUUUGAGAUGGCCUUGCAAAGGGUAUGGUAAUAAGCUGACGGACAUGGUCCUAACCACGCAGCCAAGUCCUAAGUCAACAGAUCUUCUGUUGAUAUGGAUGCAGUUCACAGACUAAAUGUCGGUCGGGGAAGAUGUAUUCUUCUCAUAAGAUAUAGUCGGACCUCUCCUUAAUGGGAGCUAGCGGAUGAAGUGAUGCAACACUGGAGCCGCUGGGAACUAAUUUGUAUGCGAAAGUAUAUUGAUUAGUUUUGGAGUACUCGUGGUCG
# Method in brief: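 DiMSum derived fitness as the error-weighted combination of fold changes across replicates, kanamycin versus no kanamycin, normalised to wild type. E. coli BL21(DE3) held the library, which randomised all eight P1ex-region intron nucleotides within the knt kanamycin-resistance gene on pET-22b(+). Six replicate transformations grew overnight at 37°C or 30°C on LB agar with or without 25 μg/mL kanamycin, also containing 100 μg/mL carbenicillin, 50 μM IPTG and 0.2% rhamnose, and pooled colonies were amplicon-sequenced on an Illumina HiSeq 2500.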
Sequence,self-splicing fitness (ln) (30 °C),self-splicing fitness (ln) (37 °C)
AAAAAGCAAUAUUACGAAGA,-1.96 ± 0.14,-1.56 ± 0.15
AAAAAGCAAUAUUACGAAGG,-3.57 ± 0.23,-1.89 ± 0.23
AAAAAGCAAUAUUACGAAUC,-2.31 ± 0.21,-2.21 ± 0.23
AAAAAGCAAUAUUACGACAC,-0.799 ± 0.094,-0.575 ± 0.13
AAAAAGCAAUAUUACGACCA,-0.0993 ± 0.079,-0.734 ± 0.09
AAAAAGCAAUAUUACGAGAG,-2.88 ± 0.11,-1.95 ± 0.1
AAAAAGCAAUAUUACGAGCU,-0.615 ± 0.092,-0.172 ± 0.13
AAAAAGCAAUAUUACGAUCU,0.127 ± 0.055,0.246 ± 0.075
AAAAAGCAAUAUUACGCAAG,-1.78 ± 0.097,-0.583 ± 0.1
AAAAAGCAAUAUUACGCAAU,-0.871 ± 0.076,-1.08 ± 0.13
AAAAAGCAAUAUUACGCCGA,-1.19 ± 0.088,-1.01 ± 0.099
AAAAAGCAAUAUUACGCGAC,-2.77 ± 0.18,-1.23 ± 0.12
AAAAAGCAAUAUUACGCGCC,-0.44 ± 0.095,-0.59 ± 0.13
AAAAAGCAAUAUUACGCUAC,-3.43 ± 0.18,-3.23 ± 0.24
AAAAAGCAAUAUUACGGAUU,-0.657 ± 0.068,-0.635 ± 0.096
AAAAAGCAAUAUUACGGCCC,-0.786 ± 0.22,0.00498 ± 0.23
AAAAAGCAAUAUUACGGCUC,-0.28 ± 0.076,0.157 ± 0.098
AAAAAGCAAUAUUACGGCUU,-0.00557 ± 0.049,0.259 ± 0.066
AAAAAGCAAUAUUACGGGAA,-2.09 ± 0.13,-1.82 ± 0.13
AAAAAGCAAUAUUACGGGAU,-1.62 ± 0.075,-1.23 ± 0.086
AAAAAGCAAUAUUACGGUGC,-3.45 ± 0.099,-2.25 ± 0.081
AAAAAGCAAUAUUACGGUGU,-2.13 ± 0.094,-1.39 ± 0.11
AAAAAGCAAUAUUACGGUUA,0.0411 ± 0.067,-0.012 ± 0.079
AAAAAGCAAUAUUACGUCAC,-4.29 ± 0.26,-1.27 ± 0.16
AAAAAGCAAUAUUACGUCUG,-0.785 ± 0.058,-0.319 ± 0.072
AAAAAGCAAUAUUACGUGCC,-0.945 ± 0.11,-1.17 ± 0.12

Sequence,self-splicing fitness (ln) (30 °C),self-splicing fitness (ln) (37 °C)
AAAAAGCAAUAUUACGUUCA,-0.237 ± 0.075,0.0228 ± 0.089
AAAAAGCAAUAUUACGUUGC,-3.56 ± 0.13,-2.44 ± 0.14
AAACAGCAAUAUUACGAAUG,-2.81 ± 0.13,-1.91 ± 0.15
AAACAGCAAUAUUACGACAC,-1.95 ± 0.15,-0.33 ± 0.15
AAACAGCAAUAUUACGACUA,-0.953 ± 0.074,0.0444 ± 0.077
AAACAGCAAUAUUACGAGAU,-3.64 ± 0.2,-2 ± 0.15
AAACAGCAAUAUUACGAUCG,-2.18 ± 0.11,-0.0291 ± 0.11
AAACAGCAAUAUUACGAUGU,-1.36 ± 0.088,-0.715 ± 0.091
AAACAGCAAUAUUACGCAUA,-2 ± 0.096,-0.419 ± 0.073
AAACAGCAAUAUUACGCCAC,–,-1.77 ± 0.31
AAACAGCAAUAUUACGCGUA,-1.64 ± 0.093,-0.734 ± 0.083
AAACAGCAAUAUUACGGACG,-2.25 ± 0.087,-0.676 ± 0.097
AAACAGCAAUAUUACGGCGC,-1.43 ± 0.11,-0.594 ± 0.16
AAACAGCAAUAUUACGGGUC,-3.47 ± 0.16,-3.08 ± 0.22
AAACAGCAAUAUUACGGUGU,-2.42 ± 0.06,-1.4 ± 0.071
AAACAGCAAUAUUACGUCCG,-1.89 ± 0.082,-0.645 ± 0.1
AAACAGCAAUAUUACGUCUG,-2.28 ± 0.084,-1.17 ± 0.095
AAACAGCAAUAUUACGUUAG,-3.45 ± 0.14,-1.72 ± 0.12
AAACAGCAAUAUUACGUUCA,-0.713 ± 0.045,-0.557 ± 0.063
AAAGAGCAAUAUUACGAAAA,–,-0.77 ± 0.4
AAAGAGCAAUAUUACGAAUU,-1.32 ± 0.22,-2.28 ± 0.31
AAAGAGCAAUAUUACGAUAU,-3.17 ± 0.23,-1.97 ± 0.16
AAAGAGCAAUAUUACGCAAA,-3.16 ± 0.43,-2.75 ± 0.34
AAAGAGCAAUAUUACGCAUA,-2.55 ± 0.23,-1.42 ± 0.22
AAAGAGCAAUAUUACGCCCU,-2.57 ± 0.21,-0.718 ± 0.17
AAAGAGCAAUAUUACGCUCU,–,-2.45 ± 0.49

Sequence,self-splicing fitness (ln) (30 °C),self-splicing fitness (ln) (37 °C)
AAAGAGCAAUAUUACGCUUC,-2.33 ± 0.29,-3.01 ± 0.43
AAAGAGCAAUAUUACGGCGC,-2.27 ± 0.2,-0.545 ± 0.21
AAAGAGCAAUAUUACGGCGG,-3.05 ± 0.19,-2.21 ± 0.24
AAAGAGCAAUAUUACGGGCU,-3.06 ± 0.17,-3.58 ± 0.34
AAAGAGCAAUAUUACGGGGC,-4.4 ± 0.42,-2.79 ± 0.36
AAAGAGCAAUAUUACGUAUC,–,-1.57 ± 0.27
AAAGAGCAAUAUUACGUCCG,-3.14 ± 0.21,-1.86 ± 0.35
AAAGAGCAAUAUUACGUCCU,-1.93 ± 0.13,-0.831 ± 0.12
AAAGAGCAAUAUUACGUGUG,-3.84 ± 0.18,-2.57 ± 0.19
AAAGAGCAAUAUUACGUGUU,-4.56 ± 0.36,-2.66 ± 0.24
AAAGAGCAAUAUUACGUUGG,-3.59 ± 0.22,-2.4 ± 0.25
AAAUAGCAAUAUUACGACCC,-0.239 ± 0.16,-0.544 ± 0.23
AAAUAGCAAUAUUACGAUCA,-0.673 ± 0.095,0.0414 ± 0.089
AAAUAGCAAUAUUACGCAAA,-2.3 ± 0.24,-1.66 ± 0.21
AAAUAGCAAUAUUACGCAUA,-1.7 ± 0.11,-0.726 ± 0.11
AAAUAGCAAUAUUACGCCCG,-0.812 ± 0.19,0.00909 ± 0.26
AAAUAGCAAUAUUACGCCUG,-0.3 ± 0.08,-1.03 ± 0.1
AAAUAGCAAUAUUACGGAGC,-3.73 ± 0.3,-2.26 ± 0.17
AAAUAGCAAUAUUACGGCCG,-0.799 ± 0.23,0.0219 ± 0.35
AAAUAGCAAUAUUACGGGAA,-3.24 ± 0.28,-1.34 ± 0.19
AAAUAGCAAUAUUACGGGAG,-2.29 ± 0.14,-1.84 ± 0.19
AAAUAGCAAUAUUACGGGUA,-2.15 ± 0.12,-1.41 ± 0.1
AAAUAGCAAUAUUACGGUGC,-4.05 ± 0.43,-1.81 ± 0.31
AAAUAGCAAUAUUACGUACU,0.159 ± 0.063,0.295 ± 0.091
AAAUAGCAAUAUUACGUAGC,-3.97 ± 0.33,-1.9 ± 0.31
